Measured values taken from paper PMC5493754, “Myosin 7 and its adaptors link cadherins to actin” (Nature Communications, 2017).
Substitutions are numbered along the chain they refer to. Blank lines part the entries; values can stand above or below the molecule they belong to.

Experiments:
[1] = biological target: YFP-Harmonin-a PDZ3c (human) (UniProt Q9Y6N9); assay: MST; YFP-fused partner constant at 100 nM, non-fluorescent protein titrated (16 two-fold dilutions); 20 mM Hepes pH 7.0, 100 mM NaCl, 1 mM EGTA, 0.5 mM TCEP, 0.05% Tween 20; Monolith NT.115
[2] = biological target: YFP-ANKS4B_(CEN-PBM) (human) (UniProt Q8N8V4); assay: as above
YFP-SANS_(CEN-PBM) = YFP-SANS_(CEN-PBM) (UniProt Q495M9); assay: as above
Myosin 7a MF1.SH3 = biological target: T1, Myosin 7a MF1.SH3 (human, UniProt Q13402-1 991-1692, residues 1523-1560 were deleted from MF1); assay: as above; conditions: both partners purified
T1 construct: Myosin 7a, human, N-terminal MyTH4-FERM domain and SH3, residues 991-1692 of UniProt Q13402-1; residues 1523-1560 deleted; Thrombin site of the vector replaced by an SSG linker; also called M7a MF1.SH3; Myo7a MF1.SH3; source: E. coli (BL21-AI, BL21 (DE3) Rosetta or BL21-Gold (DE3)), purified (Histrap, CaptoQ, gel filtration)
T1 sequence (looked up): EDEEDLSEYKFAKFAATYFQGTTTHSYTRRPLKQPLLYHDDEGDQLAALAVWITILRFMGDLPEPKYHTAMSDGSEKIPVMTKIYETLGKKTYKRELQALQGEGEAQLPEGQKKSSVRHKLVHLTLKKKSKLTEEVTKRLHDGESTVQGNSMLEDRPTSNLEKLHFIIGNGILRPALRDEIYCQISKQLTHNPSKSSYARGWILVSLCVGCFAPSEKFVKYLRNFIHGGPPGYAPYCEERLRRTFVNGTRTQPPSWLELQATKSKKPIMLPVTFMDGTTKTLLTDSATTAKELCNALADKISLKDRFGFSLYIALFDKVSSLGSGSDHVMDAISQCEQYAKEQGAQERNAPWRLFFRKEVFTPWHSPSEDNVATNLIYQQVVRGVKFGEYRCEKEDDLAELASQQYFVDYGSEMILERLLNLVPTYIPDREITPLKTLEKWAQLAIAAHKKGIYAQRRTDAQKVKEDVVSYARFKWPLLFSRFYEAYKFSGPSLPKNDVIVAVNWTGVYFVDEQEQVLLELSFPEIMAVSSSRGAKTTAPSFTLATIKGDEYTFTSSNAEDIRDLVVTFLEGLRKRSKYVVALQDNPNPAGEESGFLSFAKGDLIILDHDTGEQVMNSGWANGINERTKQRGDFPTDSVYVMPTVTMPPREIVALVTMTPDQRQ

Myosin 7b MF1.SH3 A1128E = biological target: T2, Myosin 7b MF1.SH3 A1128E (human, UniProt Q6PIF6 958-1586, A1128E); assay: as above; conditions: both partners purified
T2 construct: Myosin 7b, human, MF1.SH3, residues 958-1586 of UniProt Q6PIF6; also called M7b MF1.SH3 A1128E; source: E. coli, purified similarly as wild type (Histrap, CaptoQ, gel filtration)
T2 sequence: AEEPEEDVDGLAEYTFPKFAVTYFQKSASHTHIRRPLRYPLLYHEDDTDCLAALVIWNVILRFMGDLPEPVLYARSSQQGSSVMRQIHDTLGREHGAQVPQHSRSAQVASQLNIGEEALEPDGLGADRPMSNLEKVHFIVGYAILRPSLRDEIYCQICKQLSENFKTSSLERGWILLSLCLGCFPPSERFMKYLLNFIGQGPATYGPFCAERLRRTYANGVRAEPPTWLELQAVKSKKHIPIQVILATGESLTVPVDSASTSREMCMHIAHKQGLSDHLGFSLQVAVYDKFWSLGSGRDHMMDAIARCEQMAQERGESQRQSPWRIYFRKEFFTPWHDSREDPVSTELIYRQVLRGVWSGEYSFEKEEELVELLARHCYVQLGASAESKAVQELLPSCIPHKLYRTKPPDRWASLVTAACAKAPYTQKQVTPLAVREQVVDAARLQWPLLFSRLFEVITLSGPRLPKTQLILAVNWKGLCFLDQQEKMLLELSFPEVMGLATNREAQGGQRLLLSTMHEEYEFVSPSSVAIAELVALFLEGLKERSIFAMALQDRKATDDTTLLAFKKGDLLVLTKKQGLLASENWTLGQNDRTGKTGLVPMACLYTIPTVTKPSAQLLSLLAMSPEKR

Harmonin NPDZ1.PDZ2 = biological target: T3, Harmonin NPDZ1.PDZ2 (human, UniProt Q9Y6N9-1 1-301); assay: as above; conditions: both partners purified
T3 construct: Harmonin-a1 (USH1C), human, N-terminal domain, PDZ1 and PDZ2, residues 1-301 of UniProt Q9Y6N9-1; source: E. coli BL21 (DE3) Rosetta, purified (Glutathione Sepharose 4B, size-exclusion chromatography)
T3 sequence (looked up): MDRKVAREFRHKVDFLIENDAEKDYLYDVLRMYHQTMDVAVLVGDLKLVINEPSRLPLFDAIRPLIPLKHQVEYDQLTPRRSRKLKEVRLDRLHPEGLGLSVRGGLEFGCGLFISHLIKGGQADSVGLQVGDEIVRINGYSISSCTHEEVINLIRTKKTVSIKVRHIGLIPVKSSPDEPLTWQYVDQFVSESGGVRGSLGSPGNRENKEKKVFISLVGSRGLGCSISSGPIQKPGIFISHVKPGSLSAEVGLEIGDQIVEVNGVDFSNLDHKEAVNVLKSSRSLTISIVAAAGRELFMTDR

Myosin 7b MF1.SH3 = biological target: T4, Myosin 7b MF1.SH3 (human, UniProt Q6PIF6 958-1586); assay: as above; conditions: both partners purified
T4 construct: also called M7b MF1.SH3; Myo7b MF1.SH3; source: E. coli (BL21-AI, BL21 (DE3) Rosetta or BL21-Gold (DE3)), purified (Histrap, CaptoQ, gel filtration)
T4 sequence: T2 sequence with E171A

[3] = biological target: T5, Full length (FL)-harmonin (harmonin-a1) (human, UniProt Q9Y6N9-1 1-552); assay: MST; as a1 but 150 mM NaCl (for FL-Harmonin-a); YFP-fused partner constant at 100 nM, non-fluorescent protein titrated; conditions: both partners purified
T5 construct: Harmonin-a1 (USH1C), human, residues 1-552 of UniProt Q9Y6N9-1; also called FL-harmonin-a; source: E. coli BL21 (DE3) Rosetta, purified (Glutathione Sepharose 4B, size-exclusion chromatography)
T5 sequence (looked up): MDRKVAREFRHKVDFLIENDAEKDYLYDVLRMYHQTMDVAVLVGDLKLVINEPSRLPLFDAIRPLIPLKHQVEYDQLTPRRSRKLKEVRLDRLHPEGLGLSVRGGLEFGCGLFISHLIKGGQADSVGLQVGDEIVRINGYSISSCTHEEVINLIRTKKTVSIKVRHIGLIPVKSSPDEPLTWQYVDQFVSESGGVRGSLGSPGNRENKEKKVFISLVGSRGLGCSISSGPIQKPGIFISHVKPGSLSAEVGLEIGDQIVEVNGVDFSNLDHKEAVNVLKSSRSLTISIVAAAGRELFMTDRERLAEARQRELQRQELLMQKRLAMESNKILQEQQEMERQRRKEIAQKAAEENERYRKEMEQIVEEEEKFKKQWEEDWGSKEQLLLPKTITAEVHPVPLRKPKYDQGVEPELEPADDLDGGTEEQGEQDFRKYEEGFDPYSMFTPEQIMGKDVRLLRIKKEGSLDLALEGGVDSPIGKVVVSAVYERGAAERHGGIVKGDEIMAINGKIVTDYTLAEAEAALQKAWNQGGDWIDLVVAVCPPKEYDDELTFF

Molecule: Myosin 7b MF2 R1921E-F1923V (from UniProt Q6PIF6 1605-2116) (domain or fragment)
Kd [1]: > 100 µM

Molecule: Myosin 7b MF1.SH3 K1194E-K1195E R1171E-R1172E (from UniProt Q6PIF6 958-1586) (domain or fragment)
Kd [2]: 3.1 µM
Kd (YFP-SANS_(CEN-PBM)): 6.6 µM

B1: YFP-ANKS4B_(CEN-PBM) (domain or fragment, human, UniProt Q8N8V4 259-417, looked up)
chain: SVHHESILNRPGLGSIVFRRNRISSPEDISDSKREFGFKLPSELLQRQGASEADEGAADEEGEENGLKDDLPWDDDEVEWEEDVVDATPLEVFLLSQHLEEFLPIFKREQIDLEALLLCSDEDLQSIQMQLGPRKKVLNAINRRKQVLQQPGQLVDTSL
notes: ANKS4B, human, CEN regions, SAM domain and PBM, residues 259-417 of UniProt Q8N8V4; source: E. coli (BL21-AI, BL21 (DE3) Rosetta or BL21-Gold (DE3)), purified (Histrap, CaptoQ, gel filtration); not shown: YFP, N-terminal, kept
Kd (Myosin 7a MF1.SH3): 4.9 ± 0.7 µM
Kd (Myosin 7b MF1.SH3 A1128E): 13.1 ± 0.7 µM
Kd (Harmonin NPDZ1.PDZ2): 0.009 µM
Kd (Myosin 7b MF1.SH3): 4.3 ± 0.8 µM

Other lines, results leading:

Kd (Myosin 7a MF1.SH3): 0.13 ± 0.02 µM
Kd (Myosin 7b MF1.SH3 A1128E): 18.2 ± 2.8 µM
Kd (Harmonin NPDZ1.PDZ2): 0.017 µM
Kd (Myosin 7b MF1.SH3): 5.4 ± 1.6 µM
B2: YFP-SANS_(CEN-PBM) (domain or fragment, UniProt Q495M9 300-461, looked up)
chain: DSGHDSLFTRPGLGTMVFRRNYLSSGLHGLGREDGGLDGVGAPRGRLQSSPSLDDDSLGSANSLQDRSCGEELPWDELDLGLDEDLEPETSPLETFLASLHMEDFAALLRQEKIDLEALMLCSDLDLRSISVPLGPRKKILGAVRRRRQAMERPPALEDTEL
notes: The full-length SANS gene was synthesised; source: E. coli (BL21-AI, BL21 (DE3) Rosetta or BL21-Gold (DE3)), purified (Histrap, CaptoQ, gel filtration); not shown: YFP, N-terminal, kept

Kd [3]: 2.5 µM
B3: YFP-FL-harmonin-ΔCter (domain or fragment, human, UniProt Q9Y6N9-1 1-542, looked up)
chain: MDRKVAREFRHKVDFLIENDAEKDYLYDVLRMYHQTMDVAVLVGDLKLVINEPSRLPLFDAIRPLIPLKHQVEYDQLTPRRSRKLKEVRLDRLHPEGLGLSVRGGLEFGCGLFISHLIKGGQADSVGLQVGDEIVRINGYSISSCTHEEVINLIRTKKTVSIKVRHIGLIPVKSSPDEPLTWQYVDQFVSESGGVRGSLGSPGNRENKEKKVFISLVGSRGLGCSISSGPIQKPGIFISHVKPGSLSAEVGLEIGDQIVEVNGVDFSNLDHKEAVNVLKSSRSLTISIVAAAGRELFMTDRERLAEARQRELQRQELLMQKRLAMESNKILQEQQEMERQRRKEIAQKAAEENERYRKEMEQIVEEEEKFKKQWEEDWGSKEQLLLPKTITAEVHPVPLRKPKYDQGVEPELEPADDLDGGTEEQGEQDFRKYEEGFDPYSMFTPEQIMGKDVRLLRIKKEGSLDLALEGGVDSPIGKVVVSAVYERGAAERHGGIVKGDEIMAINGKIVTDYTLAEAEAALQKAWNQGGDWIDLVVAVCPP
notes: Harmonin-a1 (USH1C), human, residues 1-542 of UniProt Q9Y6N9-1; also called ^YFPFL ΔCter; source: E. coli BL21 (DE3) Rosetta, purified (Glutathione Sepharose 4B, size-exclusion chromatography)
